The results in this text go back to article PMC12589655 (Nature Communications, 2025).

Usually stoichiometry N stands for the number of molecules, sites or subunits per partner or assembly.

The data set deals with the molecule itself. The data set is described as follows: SEC-SAXS. In general terms: SEC sorts molecules by how far they enter the pores of the column.

B1: CVS wt P3, recombinant (rabies virus CVS-11 phosphoprotein, residues 53-297) (natural protein)
chain: MKRLHLDDEKSSNLGEMVRVGEGKYREDFQMDEGEDPNLLFQSYLDNVGVQIVRQMRSGERFLKIWSQTVEEIVSYVTVNFPNPPRRSSEDKSTQTTGRELKKETTSAFSQRESQPSKARMVAQVAPGPPALEWSATNEEDDLSVEAEIAHQIAESFSKKYKFPSRSSGIFLYNFEQLKMNLDDIVKEAKNVPGVTRLAHDGSKIPLRCVLGWVALANSKKFQLLVEADKLSKIMQDDLNRYTSC
With B1, the “stoichiometry N” value was determined as 2.
